Measurements: the supplement of paper PMC9112550, “Optimization of the antimicrobial peptide Bac7 by deep mutational scanning” (BMC Biology, 2022)

Tested on: Escherichia coli TOP10
Experiment: shrunken log2 fold change of peptide-encoding DNA abundance (4.5 h post-induction vs induction); higher = less antimicrobial activity (less host growth inhibition)
Settings: time post-induction: 4.5 h; library: site-saturation at positions 5, 18, 19, 20
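Further: peptides expressed intracellularly from a pBAD plasmid library in pooled LB shake-flask culture, induced with 0.3% L-arabinose, DNA abundance read by NGS, three biological replicates, DESeq2 with apeglm shrinkage.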

| Sequence | shrunken log2 fold change |
| --- | --- |
| RRIRMRPPRLPRPRPRPAENPRP | 0.084 |
| RRIRLRPPRLPRPRPRPHNGPRP | -0.00962 |
| RRIRIRPPRLPRPRPRPMKGPRP | -0.0335 |
| RRIRQRPPRLPRPRPRPLGCPRP | -0.0282 |
| RRIRKRPPRLPRPRPRPLQSPRP | 0.295 |
| RRIRVRPPRLPRPRPRPDTRPRP | -0.129 |
| RRIRMRPPRLPRPRPRPVEIPRP | 0.00438 |
| RRIRHRPPRLPRPRPRPVVLPRP | -0.298 |
| RRIRPRPPRLPRPRPRPLEEPRP | 0.215 |
| RRIRYRPPRLPRPRPRPDDFPRP | -0.0153 |
| RRIRRRPPRLPRPRPRPLLQPRP | 0.512 |
| RRIRCRPPRLPRPRPRPLIDPRP | -0.301 |
| RRIRWRPPRLPRPRPRPENGPRP | -0.109 |
| RRIRIRPPRLPRPRPRPTYTPRP | -0.405 |
| RRIRSRPPRLPRPRPRPCNFPRP | -0.702 |
| RRIRKRPPRLPRPRPRPKLRPRP | -0.0198 |
| RRIRFRPPRLPRPRPRPDQAPRP | -0.0167 |
| RRIRNRPPRLPRPRPRPHWLPRP | -0.101 |
| RRIRARPPRLPRPRPRPYAVPRP | -0.0829 |
| RRIRPRPPRLPRPRPRPGRWPRP | 0.551 |
| RRIRKRPPRLPRPRPRPPYIPRP | -0.69 |
| RRIRPRPPRLPRPRPRPANSPRP | 0.00247 |
| RRIRTRPPRLPRPRPRPPYGPRP | -0.195 |
| RRIRRRPPRLPRPRPRPVCQPRP | 0.179 |
| RRIRVRPPRLPRPRPRPAQEPRP | 0.0593 |

| Sequence | shrunken log2 fold change |
| --- | --- |
| RRIRWRPPRLPRPRPRPCCMPRP | -0.196 |
| RRIRERPPRLPRPRPRPFQMPRP | -0.112 |
| RRIRGRPPRLPRPRPRPTGCPRP | 0.562 |
| RRIRKRPPRLPRPRPRPSCPPRP | -0.0238 |
| RRIRCRPPRLPRPRPRPAWFPRP | 0.194 |
| RRIRNRPPRLPRPRPRPCASPRP | -0.106 |
| RRIRGRPPRLPRPRPRPGLAPRP | 1.25 |
| RRIRMRPPRLPRPRPRPQHFPRP | 0.00913 |
| RRIRVRPPRLPRPRPRPSSPPRP | -0.269 |
| RRIRHRPPRLPRPRPRPYYDPRP | -0.0623 |
| RRIRARPPRLPRPRPRPKWNPRP | 0.286 |
| RRIRRRPPRLPRPRPRPLNPPRP | -0.00196 |
| RRIRQRPPRLPRPRPRPNQCPRP | 0.0304 |
| RRIRRRPPRLPRPRPRPDRHPRP | -0.0411 |
| RRIRNRPPRLPRPRPRPHNPPRP | -0.143 |
| RRIRYRPPRLPRPRPRPTYMPRP | -1 |
| RRIRKRPPRLPRPRPRPHPPPRP | 1.27 |
| RRIRCRPPRLPRPRPRPYCAPRP | -0.642 |
| RRIRHRPPRLPRPRPRPSYEPRP | -0.503 |
| RRIRNRPPRLPRPRPRPDEEPRP | 0.509 |
| RRIRSRPPRLPRPRPRPWDSPRP | -0.729 |
| RRIRHRPPRLPRPRPRPKLRPRP | -0.382 |
| RRIRLRPPRLPRPRPRPRMHPRP | 0.136 |
| RRIRRRPPRLPRPRPRPLGSPRP | 0.0898 |
| RRIRNRPPRLPRPRPRPEIMPRP | 0.0538 |

| Sequence | shrunken log2 fold change |
| --- | --- |
| RRIRTRPPRLPRPRPRPSRWPRP | 0.0135 |
| RRIRTRPPRLPRPRPRPTHRPRP | -0.185 |
| RRIRARPPRLPRPRPRPNHPPRP | -0.0147 |
| RRIRHRPPRLPRPRPRPMCIPRP | -0.162 |
| RRIRGRPPRLPRPRPRPECGPRP | 1.71 |
| RRIRPRPPRLPRPRPRPHYPPRP | -0.0221 |
| RRIRYRPPRLPRPRPRPRATPRP | -0.0516 |
| RRIRCRPPRLPRPRPRPRMRPRP | 0.542 |
| RRIRMRPPRLPRPRPRPHQWPRP | 0.121 |
| RRIRVRPPRLPRPRPRPHFCPRP | -0.0628 |
| RRIRGRPPRLPRPRPRPTWFPRP | 0.281 |
| RRIRDRPPRLPRPRPRPWLNPRP | -0.277 |
| RRIRVRPPRLPRPRPRPLNFPRP | -0.249 |
| RRIRTRPPRLPRPRPRPAEEPRP | 0.0505 |
| RRIRCRPPRLPRPRPRPYRIPRP | -0.263 |
| RRIRRRPPRLPRPRPRPHHNPRP | -0.393 |
| RRIRIRPPRLPRPRPRPCEEPRP | 0.0173 |
| RRIRERPPRLPRPRPRPSHHPRP | -0.73 |
| RRIRWRPPRLPRPRPRPQGMPRP | -0.225 |
| RRIRARPPRLPRPRPRPFGLPRP | 2.49 |
| RRIRIRPPRLPRPRPRPSHKPRP | -0.671 |
| RRIRCRPPRLPRPRPRPSHPPRP | -0.0807 |
| RRIRHRPPRLPRPRPRPRGDPRP | 0.263 |
| RRIRDRPPRLPRPRPRPGTDPRP | 0.341 |
| RRIRTRPPRLPRPRPRPVWEPRP | 0.264 |

| Sequence | shrunken log2 fold change |
| --- | --- |
| RRIRDRPPRLPRPRPRPHMYPRP | -0.102 |
| RRIRSRPPRLPRPRPRPKYQPRP | -0.157 |
| RRIRQRPPRLPRPRPRPFHHPRP | -0.0143 |
| RRIRKRPPRLPRPRPRPLKHPRP | 0.0711 |
| RRIRARPPRLPRPRPRPCDIPRP | -0.2 |
| RRIRLRPPRLPRPRPRPEEHPRP | 0.00515 |
| RRIRGRPPRLPRPRPRPKFDPRP | 0.867 |
| RRIRMRPPRLPRPRPRPHFRPRP | 0.0286 |
| RRIRQRPPRLPRPRPRPFIVPRP | -0.136 |
| RRIRDRPPRLPRPRPRPRWKPRP | 0.0064 |
| RRIRTRPPRLPRPRPRPNSTPRP | -0.363 |
| RRIRSRPPRLPRPRPRPCMEPRP | -0.292 |
| RRIRTRPPRLPRPRPRPIEDPRP | 0.0177 |
| RRIRGRPPRLPRPRPRPYAKPRP | -0.0213 |
| RRIRGRPPRLPRPRPRPMENPRP | 0.47 |
| RRIRWRPPRLPRPRPRPCLFPRP | -0.00127 |
| RRIRPRPPRLPRPRPRPVKKPRP | -0.016 |
| RRIRGRPPRLPRPRPRPMLPPRP | 0.242 |
| RRIRMRPPRLPRPRPRPEFAPRP | 0.679 |
| RRIRMRPPRLPRPRPRPNDVPRP | -0.00114 |
| RRIRWRPPRLPRPRPRPDNQPRP | -0.265 |
| RRIRTRPPRLPRPRPRPRTFPRP | 0.0284 |
| RRIRKRPPRLPRPRPRPCHQPRP | 0.124 |
| RRIRKRPPRLPRPRPRPGIVPRP | 0.0403 |
| RRIRQRPPRLPRPRPRPDADPRP | -0.0253 |

| Sequence | shrunken log2 fold change |
| --- | --- |
| RRIRERPPRLPRPRPRPSDMPRP | -0.0552 |
| RRIRDRPPRLPRPRPRPGYIPRP | -0.304 |
| RRIRMRPPRLPRPRPRPFLRPRP | -0.22 |
| RRIRKRPPRLPRPRPRPYHSPRP | 2.07 |
| RRIRPRPPRLPRPRPRPFDTPRP | -0.126 |
| RRIRGRPPRLPRPRPRPKFIPRP | -0.425 |
| RRIRMRPPRLPRPRPRPTIDPRP | 0.0912 |
| RRIRHRPPRLPRPRPRPYWHPRP | -0.666 |
| RRIRMRPPRLPRPRPRPTIVPRP | -0.0671 |
| RRIRIRPPRLPRPRPRPFIEPRP | -0.848 |
| RRIRFRPPRLPRPRPRPLANPRP | 0.0332 |
| RRIRKRPPRLPRPRPRPVMQPRP | 0.041 |
| RRIRRRPPRLPRPRPRPEAWPRP | 0.14 |
| RRIRHRPPRLPRPRPRPNCDPRP | -0.264 |
| RRIRDRPPRLPRPRPRPPAVPRP | 0.312 |
| RRIRARPPRLPRPRPRPEKIPRP | 0.649 |
| RRIRPRPPRLPRPRPRPFVIPRP | 0.00225 |
| RRIRARPPRLPRPRPRPIYDPRP | -0.138 |
| RRIRTRPPRLPRPRPRPIPWPRP | -0.0529 |
| RRIRPRPPRLPRPRPRPKGFPRP | 0.0275 |
| RRIRIRPPRLPRPRPRPLVAPRP | -0.0566 |
| RRIRIRPPRLPRPRPRPNHWPRP | 0.0534 |
| RRIRMRPPRLPRPRPRPDESPRP | 2.38 |
| RRIRMRPPRLPRPRPRPMFRPRP | -0.0348 |
| RRIRGRPPRLPRPRPRPQQIPRP | 0.457 |

| Sequence | shrunken log2 fold change |
| --- | --- |
| RRIRDRPPRLPRPRPRPKNGPRP | 0.74 |
| RRIRARPPRLPRPRPRPVWNPRP | 0.0865 |
| RRIRCRPPRLPRPRPRPRHIPRP | -0.28 |
| RRIRPRPPRLPRPRPRPDRHPRP | -0.31 |
| RRIRLRPPRLPRPRPRPHINPRP | -0.645 |
| RRIRCRPPRLPRPRPRPDASPRP | 0.27 |
| RRIRGRPPRLPRPRPRPQACPRP | 0.27 |
| RRIRSRPPRLPRPRPRPAMVPRP | -0.274 |
| RRIRSRPPRLPRPRPRPLKHPRP | -0.39 |
| RRIRTRPPRLPRPRPRPSITPRP | -0.484 |
| RRIRVRPPRLPRPRPRPEPEPRP | 0.515 |
| RRIRARPPRLPRPRPRPHVGPRP | 0.34 |
| RRIRARPPRLPRPRPRPSDTPRP | -0.339 |
| RRIRYRPPRLPRPRPRPLVNPRP | -1.09 |
| RRIRWRPPRLPRPRPRPHSLPRP | -0.262 |
| RRIRMRPPRLPRPRPRPKVCPRP | 0.0971 |
| RRIRNRPPRLPRPRPRPWPTPRP | 0.216 |
| RRIRERPPRLPRPRPRPNRGPRP | -0.00351 |
| RRIRFRPPRLPRPRPRPNITPRP | -0.633 |
| RRIRERPPRLPRPRPRPVIGPRP | -0.108 |
| RRIRDRPPRLPRPRPRPCNHPRP | -0.218 |
| RRIRPRPPRLPRPRPRPVNKPRP | -0.521 |
| RRIRDRPPRLPRPRPRPIRNPRP | 0.011 |
| RRIRLRPPRLPRPRPRPYRFPRP | 0.0498 |
| RRIRHRPPRLPRPRPRPEADPRP | -0.00192 |
